The target in the assay is T1, recombinant human C3d (human, UniProt P01024 996-1303, limits assumed).
T1 construct: domain: C3d; The Biacore paragraph says only C3d; also called recombinant C3d
The assay can be described thus: BIAcore SPR, C3d immobilized on the chip, antibody at 10, 30 and 90 nM in flow, 1:1 Langmuir fit. From the text:
The binding affinity of the anti-C3d/C3dg antibodies to C3d was further tested by BIAcore analysis.
A general note: SPR reads the build-up and loss of mass on a sensor chip optically.

T1 sequence (P01024 996-1303 limits assumed): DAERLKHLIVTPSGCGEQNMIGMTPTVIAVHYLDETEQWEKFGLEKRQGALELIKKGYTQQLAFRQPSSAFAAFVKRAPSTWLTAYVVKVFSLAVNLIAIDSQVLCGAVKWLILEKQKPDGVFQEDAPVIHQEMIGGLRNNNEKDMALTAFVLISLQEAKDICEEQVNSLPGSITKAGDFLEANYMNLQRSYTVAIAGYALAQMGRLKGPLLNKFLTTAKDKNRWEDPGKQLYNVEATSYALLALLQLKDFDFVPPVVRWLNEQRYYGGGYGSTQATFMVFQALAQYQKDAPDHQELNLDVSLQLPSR

B1: mouse monoclonal anti-C3d antibody 3d29, produced by hybridoma cell line 3d-29/5/2 (ATCC PTA-11000) (antibody, V domains shown)
VH: EVQLQQSGPVLVKPGASVKMSCKASGYTFTDYYMNWVKQSHGKSLEWIGVINPYNGGTSYNQKFKGKATLTVDKSSRTAYMELNSLTSEDSAVYYCSRGGPYWGQGTTLTVSS
VL: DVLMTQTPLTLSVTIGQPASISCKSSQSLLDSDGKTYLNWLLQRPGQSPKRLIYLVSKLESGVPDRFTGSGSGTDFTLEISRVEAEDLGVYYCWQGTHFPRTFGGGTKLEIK
notes: Whole mouse IgG purified on protein G; also called mAb 3d29; clone 3d29
As for B1, the Kd was 1.06 nM.

As a reminder, the Kd is a measure of binding affinity in units of concentration.
